According to the Human Domainome abundance scans (Beltran et al. 2025):
± gives the uncertainty stated by the source.

assay: abundance fitness (aPCA) (normalised: wild type 0, dead -1); higher = more abundant; growth selection in yeast, the domain comes from the species named; details: Homo sapiens

Q: Which abundance fitness does the source give for “Lipoamide acyltransferase component of branched-chain alpha-keto acid dehydrogenase complex, mitochondrial E203V, P11182” here?
A: The abundance fitness was -0.08 ± 0.042.

Q: With “Lipoamide acyltransferase component of branched-chain alpha-keto acid dehydrogenase complex, mitochondrial E210A, P11182” as the substance, how does the abundance fitness read?
A: Its abundance fitness is 0.021 ± 0.038.

Q: Which abundance fitness does the source give for “Lipoamide acyltransferase component of branched-chain alpha-keto acid dehydrogenase complex, mitochondrial E210C, P11182” here?
A: The abundance fitness was -0.048 ± 0.053.

Q: With “Lipoamide acyltransferase component of branched-chain alpha-keto acid dehydrogenase complex, mitochondrial E210D, P11182” as the substance, how does the abundance fitness read?
A: The abundance fitness was -0.006 ± 0.058.

Q: Which abundance fitness does the source give for “Lipoamide acyltransferase component of branched-chain alpha-keto acid dehydrogenase complex, mitochondrial E210F, P11182” here?
A: The abundance fitness was -0.24 ± 0.066.

Q: Which abundance fitness does the source give for “Lipoamide acyltransferase component of branched-chain alpha-keto acid dehydrogenase complex, mitochondrial E210H, P11182” here?
A: The abundance fitness was -0.319 ± 0.15.

Q: Which abundance fitness does the source give for “Lipoamide acyltransferase component of branched-chain alpha-keto acid dehydrogenase complex, mitochondrial E210I, P11182” here?
A: The abundance fitness was -0.239 ± 0.055.

Q: With “Lipoamide acyltransferase component of branched-chain alpha-keto acid dehydrogenase complex, mitochondrial E210K, P11182” as the substance, how does the abundance fitness read?
A: Its abundance fitness is 0.034 ± 0.072.

Q: For “Lipoamide acyltransferase component of branched-chain alpha-keto acid dehydrogenase complex, mitochondrial E210L, P11182”, which abundance fitness is on record?
A: The abundance fitness was -0.133 ± 0.041.

Q: Which abundance fitness does the source give for “Lipoamide acyltransferase component of branched-chain alpha-keto acid dehydrogenase complex, mitochondrial E210M, P11182” here?
A: The abundance fitness was -0.109 ± 0.044.

Q: With “Lipoamide acyltransferase component of branched-chain alpha-keto acid dehydrogenase complex, mitochondrial E210N, P11182” as the substance, how does the abundance fitness read?
A: The abundance fitness was -0.061 ± 0.08.

Q: With “Lipoamide acyltransferase component of branched-chain alpha-keto acid dehydrogenase complex, mitochondrial E210P, P11182” as the substance, how does the abundance fitness read?
A: The abundance fitness was -0.081 ± 0.056.

Q: With “Lipoamide acyltransferase component of branched-chain alpha-keto acid dehydrogenase complex, mitochondrial E210Q, P11182” as the substance, how does the abundance fitness read?
A: Its abundance fitness is -0.042 ± 0.053.

Q: Which abundance fitness does the source give for “Lipoamide acyltransferase component of branched-chain alpha-keto acid dehydrogenase complex, mitochondrial E210R, P11182” here?
A: The abundance fitness was 0.008 ± 0.039.

Q: Which abundance fitness does the source give for “Lipoamide acyltransferase component of branched-chain alpha-keto acid dehydrogenase complex, mitochondrial E210S, P11182” here?
A: Its abundance fitness is -0.019 ± 0.042.

Q: For “Lipoamide acyltransferase component of branched-chain alpha-keto acid dehydrogenase complex, mitochondrial E210T, P11182”, which abundance fitness is on record?
A: The abundance fitness was -0.041 ± 0.056.

Q: With “Lipoamide acyltransferase component of branched-chain alpha-keto acid dehydrogenase complex, mitochondrial G193A, P11182” as the substance, how does the abundance fitness read?
A: The abundance fitness was -0.199 ± 0.039.

Q: With “Lipoamide acyltransferase component of branched-chain alpha-keto acid dehydrogenase complex, mitochondrial G193C, P11182” as the substance, how does the abundance fitness read?
A: Its abundance fitness is -0.647 ± 0.059.

Q: For “Lipoamide acyltransferase component of branched-chain alpha-keto acid dehydrogenase complex, mitochondrial G193D, P11182”, which abundance fitness is on record?
A: Its abundance fitness is -0.773 ± 0.088.

Q: Which abundance fitness does the source give for “Lipoamide acyltransferase component of branched-chain alpha-keto acid dehydrogenase complex, mitochondrial G193E, P11182” here?
A: The abundance fitness was -0.706 ± 0.067.

Q: For “Lipoamide acyltransferase component of branched-chain alpha-keto acid dehydrogenase complex, mitochondrial G193H, P11182”, which abundance fitness is on record?
A: The abundance fitness was -0.908 ± 0.2.

Q: Which abundance fitness does the source give for “Lipoamide acyltransferase component of branched-chain alpha-keto acid dehydrogenase complex, mitochondrial G193I, P11182” here?
A: The abundance fitness was -0.951 ± 0.12.

Q: Which abundance fitness does the source give for “Lipoamide acyltransferase component of branched-chain alpha-keto acid dehydrogenase complex, mitochondrial G193K, P11182” here?
A: The abundance fitness was -0.732 ± 0.057.

Q: With “Lipoamide acyltransferase component of branched-chain alpha-keto acid dehydrogenase complex, mitochondrial G193L, P11182” as the substance, how does the abundance fitness read?
A: Its abundance fitness is -0.863 ± 0.061.

Q: Which abundance fitness does the source give for “Lipoamide acyltransferase component of branched-chain alpha-keto acid dehydrogenase complex, mitochondrial G193M, P11182” here?
A: The abundance fitness was -0.694 ± 0.073.

Q: Which abundance fitness does the source give for “Lipoamide acyltransferase component of branched-chain alpha-keto acid dehydrogenase complex, mitochondrial G193P, P11182” here?
A: The abundance fitness was -0.08 ± 0.051.

Q: With “Lipoamide acyltransferase component of branched-chain alpha-keto acid dehydrogenase complex, mitochondrial G193Q, P11182” as the substance, how does the abundance fitness read?
A: The abundance fitness was -0.573 ± 0.061.

Q: With “Lipoamide acyltransferase component of branched-chain alpha-keto acid dehydrogenase complex, mitochondrial G193R, P11182” as the substance, how does the abundance fitness read?
A: The abundance fitness was -0.692 ± 0.04.

Q: For “Lipoamide acyltransferase component of branched-chain alpha-keto acid dehydrogenase complex, mitochondrial G193S, P11182”, which abundance fitness is on record?
A: The abundance fitness was -0.308 ± 0.056.

Q: With “Lipoamide acyltransferase component of branched-chain alpha-keto acid dehydrogenase complex, mitochondrial G193T, P11182” as the substance, how does the abundance fitness read?
A: The abundance fitness was -0.476 ± 0.047.

Q: With “Lipoamide acyltransferase component of branched-chain alpha-keto acid dehydrogenase complex, mitochondrial G193V, P11182” as the substance, how does the abundance fitness read?
A: The abundance fitness was -0.814 ± 0.05.

Q: Which abundance fitness does the source give for “Lipoamide acyltransferase component of branched-chain alpha-keto acid dehydrogenase complex, mitochondrial G193W, P11182” here?
A: Its abundance fitness is -1.06 ± 0.18.

Q: Which abundance fitness does the source give for “Lipoamide acyltransferase component of branched-chain alpha-keto acid dehydrogenase complex, mitochondrial G193Y, P11182” here?
A: The abundance fitness was -1.02 ± 0.26.

Q: For “Lipoamide acyltransferase component of branched-chain alpha-keto acid dehydrogenase complex, mitochondrial G195A, P11182”, which abundance fitness is on record?
A: The abundance fitness was -0.464 ± 0.044.

Q: For “Lipoamide acyltransferase component of branched-chain alpha-keto acid dehydrogenase complex, mitochondrial G195D, P11182”, which abundance fitness is on record?
A: The abundance fitness was -0.516 ± 0.12.

Q: Which abundance fitness does the source give for “Lipoamide acyltransferase component of branched-chain alpha-keto acid dehydrogenase complex, mitochondrial G195E, P11182” here?
A: The abundance fitness was -0.639 ± 0.073.

Q: For “Lipoamide acyltransferase component of branched-chain alpha-keto acid dehydrogenase complex, mitochondrial G195H, P11182”, which abundance fitness is on record?
A: Its abundance fitness is -0.7 ± 0.1.

Q: Which abundance fitness does the source give for “Lipoamide acyltransferase component of branched-chain alpha-keto acid dehydrogenase complex, mitochondrial G195I, P11182” here?
A: The abundance fitness was -0.867 ± 0.15.

Q: With “Lipoamide acyltransferase component of branched-chain alpha-keto acid dehydrogenase complex, mitochondrial G195K, P11182” as the substance, how does the abundance fitness read?
A: The abundance fitness was -0.566 ± 0.13.

Q: Which abundance fitness does the source give for “Lipoamide acyltransferase component of branched-chain alpha-keto acid dehydrogenase complex, mitochondrial G195L, P11182” here?
A: The abundance fitness was -0.927 ± 0.055.

Q: With “Lipoamide acyltransferase component of branched-chain alpha-keto acid dehydrogenase complex, mitochondrial G195M, P11182” as the substance, how does the abundance fitness read?
A: The abundance fitness was -0.793 ± 0.16.

Q: Which abundance fitness does the source give for “Lipoamide acyltransferase component of branched-chain alpha-keto acid dehydrogenase complex, mitochondrial G195N, P11182” here?
A: The abundance fitness was -0.611 ± 0.12.

Q: Which abundance fitness does the source give for “Lipoamide acyltransferase component of branched-chain alpha-keto acid dehydrogenase complex, mitochondrial G195P, P11182” here?
A: The abundance fitness was -0.682 ± 0.07.

Q: Which abundance fitness does the source give for “Lipoamide acyltransferase component of branched-chain alpha-keto acid dehydrogenase complex, mitochondrial G195Q, P11182” here?
A: The abundance fitness was -0.483 ± 0.067.

Q: With “Lipoamide acyltransferase component of branched-chain alpha-keto acid dehydrogenase complex, mitochondrial G195R, P11182” as the substance, how does the abundance fitness read?
A: Its abundance fitness is -0.591 ± 0.042.

Q: Which abundance fitness does the source give for “Lipoamide acyltransferase component of branched-chain alpha-keto acid dehydrogenase complex, mitochondrial G195S, P11182” here?
A: Its abundance fitness is -0.444 ± 0.08.

Q: With “Lipoamide acyltransferase component of branched-chain alpha-keto acid dehydrogenase complex, mitochondrial G195T, P11182” as the substance, how does the abundance fitness read?
A: Its abundance fitness is -0.587 ± 0.066.

Q: For “Lipoamide acyltransferase component of branched-chain alpha-keto acid dehydrogenase complex, mitochondrial G195V, P11182”, which abundance fitness is on record?
A: The abundance fitness was -0.702 ± 0.059.
